Here are results for one molecule from PMC11062913, “Structural basis of Integrator-dependent RNA polymerase II termination” (Nature, 2024).

For this assay, the target named is T1, Integrator subunit INTS11(E203Q) (human, UniProt Q5TA45 1-600, E203Q).
T1 construct: INTS11, human; endonuclease subunit of the Integrator cleavage module; E203Q mutant with reduced catalytic activity used in all complexes for cryo-EM and XL-MS; Stood in the assays as a subunit of the Integrator–PP2A complex; also called INTS11(E203Q) mutant
Nature of the assay: cross-linking; XL-MS of the PEC–Integrator–PP2A–SOSS complex (mixed population of pre- and post-termination complexes): pooled glycerol-gradient peak fractions, 3 mM BS3, 30 min, 30 °C. As to conditions: both partners purified.

B1: NABP2 (natural protein, human, UniProt Q9BQ15-1 1-211, looked up)
chain: MTTETFVKDIKPGLKNLNLIFIVLETGRVTKTKDGHEVRTCKVADKTGSINISVWDDVGNLIQPGDIIRLTKGYASVFKGCLTLYTGRGGDLQKIGEFCMVYSEVPNFSEPNPEYSTQQAPNKAVQNDSNPSASQPTTGPSAASPASENQNGNGLSAPPGPGGGPHPPHTPSHPPSTRITRSQPNHTPAGPPGPSSNPVSNGKETRRSSKR
notes: Treated with lambda protein phosphatase during purification; also called SOSS factor NABP2
Consider B1, for which the binding result is reported as “binds”.
